{"source": "patent US20230265151A1", "about": "“GIP/GLP1 CO-AGONIST COMPOUNDS” (priority 2020, published 2023)", "binders": {"B1": {"name": "Example 476 (peptide)", "peptide": "YXEGTXTSDXXIXLDXQAQXXFIKXLIKGGPSSGAPPPS", "modifications": "Y-Aib-EGT-αMeF(2F)-TSD-4Pal-Aib-I-αMeL-LD-Orn-QAQ-Aib-Orn-FIK((2-[2-(2-Amino-ethoxy)-ethoxy]-acetyl)3-(γ-Glu)-CO-(CH2)12-CO2H)-αMeY-LIK((2-[2-(2-Amino-ethoxy)-ethoxy]-acetyl)3-(γ-Glu)-CO-(CH2)12-CO2H)GGPSSGAPPPS-NH2"}, "B2": {"name": "Example 475 (peptide)", "peptide": "B1 peptide", "modifications": "Y-Aib-EGT-αMeF(2F)-TSD-4Pal-Aib-I-αMeL-LD-Orn-QAQ-Aib-Orn-FIK((2-[2-(2-Amino-ethoxy)-ethoxy]-acetyl)2-(γ-Glu)2--(10-(4-carboxyphenoxy)decanoyl))-αMeY-LIK((2-[2-(2-Amino-ethoxy)-ethoxy]-acetyl)2-(γ-Glu)2--(10-(4-carboxyphenoxy)decanoyl))GGPSSGAPPPS-NH2"}, "B3": {"name": "Example 471 (peptide)", "peptide": "B1 peptide", "modifications": "Y-Aib-EGT-αMeF(2F)-TSD-4Pal-Aib-I-αMeL-LD-Orn-QAQ-Aib-Orn-FIK((2-[2-(2-Amino-ethoxy)-ethoxy]-acetyl)2--Trx-(γ-Glu)-(10-(4-carboxyphenoxy)decanoyl))-αMeY-LIK(((2-[2-(2-Amino-ethoxy)-ethoxy]-acetyl)2--Trx-(γ-Glu)-(10-(4-carboxyphenoxy)decanoyl))GGPSSGAPPPS-NH2)"}, "B4": {"name": "Example 473 (peptide)", "peptide": "B1 peptide", "modifications": "Y-Aib-EGT-αMeF(2F)-TSD-4Pal-Aib-I-αMeL-LD-Orn-QAQ-Aib-Orn-FIK((2-[2-(2-Amino-ethoxy)-ethoxy]-acetyl)-Trx-(γ-Glu)-(10-(4-carboxyphenoxy)decanoyl))-αMeY-LIK(((2-[2-(2-Amino-ethoxy)-ethoxy]-acetyl)-Trx-(γ-Glu)-(10-(4-carboxyphenoxy)decanoyl))GGPSSGAPPPS-NH2)"}, "B5": {"name": "Example 493 (peptide)", "peptide": "B1 peptide", "modifications": "Y-Aib-EGT-αMeF(2F)-TSD-4Pal-Aib-I-αMeL-LD-Orn-QAQ-Aib-4Pal-FIK((2-[2-(2-Amino-ethoxy)-ethoxy]-acetyl)2-(γ-Glu)-(10-(4-carboxyphenoxy)decanoyl))-αMeY-LIK((2-[2-(2-Amino-ethoxy)-ethoxy]-acetyl)2-(γ-Glu)-(10-(4-carboxyphenoxy)decanoyl))GGPSSGAPPPS-NH2"}, "B6": {"name": "Example 484 (peptide)", "peptide": "B1 peptide", "modifications": "Y-Aib-EGT-αMeF(2F)-TSD-4Pal-Aib-I-αMeL-LD-Orn-QAQ-Aib-Orn-FIK((2-[2-(2-Amino-ethoxy)-ethoxy]-acetyl)-(γ-Glu)-(2-[2-(2-Amino-ethoxy)-ethoxy]-acetyl)-(γ-Glu)-CO-(CH2)12-CO2H)-αMeY-LIK((2-[2-(2-Amino-ethoxy)-ethoxy]-acetyl)-(γ-Glu)-(2-[2-(2-Amino-ethoxy)-ethoxy]-acetyl)-(γ-Glu)-CO-(CH2)12-CO2H)GGPSSGAPPPS-NH2"}, "B7": {"name": "Example 478 (peptide)", "peptide": "B1 peptide with X10Y, Q17I", "modifications": "Y-Aib-EGT-αMeF(2F)-TSDY-Aib-I-αMeL-LD-Orn-IAQ-Aib-Orn-FIK((2-[2-(2-Amino-ethoxy)-ethoxy]-acetyl)3-(γ-Glu)-CO-(CH2)12-CO2H)-αMeY-LIK((2-[2-(2-Amino-ethoxy)-ethoxy]-acetyl)3-(γ-Glu)-CO-(CH2)12-CO2H)GGPSSGAPPPS-NH2"}, "B8": {"name": "Example 480 (peptide)", "peptide": "B1 peptide with X10Y", "modifications": "Y-Aib-EGT-αMeF(2F)-TSDY-Aib-I-αMeL-LD-Orn-QAQ-Aib-Orn-FIK((2-[2-(2-Amino-ethoxy)-ethoxy]-acetyl)2-(γ-Glu)2-CO-(CH2)12-CO2H)-αMeY-LIK((2-[2-(2-Amino-ethoxy)-ethoxy]-acetyl)2-(γ-Glu)2-CO-(CH2)12-CO2H)GGPSSGAPPPS-NH2"}, "B9": {"name": "Example 491 (peptide)", "peptide": "B1 peptide with X11S", "modifications": "Y-Aib-EGT-αMeF(2F)-TSD-hY-SI-αMeL-LD-Orn-QAQ-Aib-Orn-FIK((2-[2-(2-Amino-ethoxy)-ethoxy]-acetyl)2-(γ-Glu)-CO-(CH2)12-CO2H)-αMeY-LIK((2-[2-(2-Amino-ethoxy)-ethoxy]-acetyl)2-(γ-Glu)-CO-(CH2)12-CO2H)GGPSSGAPPPS-NH2"}, "B10": {"name": "Example 492 (peptide)", "peptide": "B1 peptide with X10Y", "modifications": "Y-Aib-EGT-αMeF(2F)-TSDY-Aib-I-αMeL-LD-Orn-QAQ-Aib-Orn-FIK((2-[2-(2-Amino-ethoxy)-ethoxy]-acetyl)2-(γ-Glu)--C10_4CP)-αMeY-LIK((2-[2-(2-Amino-ethoxy)-ethoxy]-acetyl)2-(γ-Glu)--C10_4CP)GGPSSGAPPPS-NH2"}, "B11": {"name": "Example 479 (peptide)", "peptide": "B1 peptide with X10Y", "modifications": "Y-Aib-EGT-αMeF(2F)-TSDY-Aib-I-αMeL-LD-Orn-QAQ-Aib-Orn-FIK((2-[2-(2-Amino-ethoxy)-ethoxy]-acetyl)3-(γ-Glu)-CO-(CH2)12-CO2H)-αMeY-LIK((2-[2-(2-Amino-ethoxy)-ethoxy]-acetyl)3-(γ-Glu)-CO-(CH2)12-CO2H)GGPSSGAPPPS-NH2"}, "B12": {"name": "Example 481 (peptide)", "peptide": "B1 peptide with X10Y, Q17I", "modifications": "Y-Aib-EGT-αMeF(2F)-TSDY-Aib-I-αMeL-LD-Orn-IAQ-Aib-Orn-FIK((2-[2-(2-Amino-ethoxy)-ethoxy]-acetyl)3-(γ-Glu)--(10-(4-carboxyphenoxy)decanoyl))-αMeY-LIK((2-[2-(2-Amino-ethoxy)-ethoxy]-acetyl)3-(γ-Glu)--(10-(4-carboxyphenoxy)decanoyl))GGPSSGAPPPS-NH2"}}, "note": "Numbering of substitutions follows the chain as printed. *1 amine or outer side, *2 acyl side, *3 side chain or, on linkers, in order; H or OH if unused. Where no end group is shown, it is not given here. Side-chain parts run from the residue outwards. [ ]: non-standard residue; d: D form. The star is where a group is joined. αMePhe(2-F) = C[C@](N)(Cc1ccccc1F)C(=O)O; γGlu = O=C(O)[C@H](CCC(=O)[*:2])N[*:1]; C14 diacid = O=C(O)CCCCCCCCCCCCC(=O)*; αMeY = C[C@](N)(Cc1ccc(O)cc1)C(=O)O; αMeL = CC(C)C[C@](C)(N)C(=O)O; Nle = CCCC[C@H](N)C(=O)O; Orn = NCCC[C@H](N)C(=O)O; AEEA = NCCOCCOCC(=O)O; Aib = CC(C)(N)C(=O)O", "data": [{"target": "human glucagon receptor (human, UniProt P47871 26-477)", "sequence (P47871 26-477)": "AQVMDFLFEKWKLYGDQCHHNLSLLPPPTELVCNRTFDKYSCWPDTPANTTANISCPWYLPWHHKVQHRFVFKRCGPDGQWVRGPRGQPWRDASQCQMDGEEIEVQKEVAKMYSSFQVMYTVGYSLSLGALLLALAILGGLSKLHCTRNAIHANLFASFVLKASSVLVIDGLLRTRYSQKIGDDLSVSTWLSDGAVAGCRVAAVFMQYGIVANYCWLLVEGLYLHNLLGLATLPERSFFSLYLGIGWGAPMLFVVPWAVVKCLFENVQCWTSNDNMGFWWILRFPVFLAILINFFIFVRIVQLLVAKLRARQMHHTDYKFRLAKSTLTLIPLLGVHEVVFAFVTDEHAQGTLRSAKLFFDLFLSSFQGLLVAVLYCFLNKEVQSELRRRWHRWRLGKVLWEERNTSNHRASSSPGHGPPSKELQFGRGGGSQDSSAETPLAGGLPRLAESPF", "assay": "cell-based or functional assay", "units": {"cAMP EC50 (1.0% HSA)": "nM"}, "values": [{"binder": "B1", "cAMP EC50 (1.0% HSA)": "> 9950"}, {"binder": "B2", "cAMP EC50 (1.0% HSA)": "> 9950"}, {"binder": "B3", "cAMP EC50 (1.0% HSA)": "> 9950"}, {"binder": "B4", "cAMP EC50 (1.0% HSA)": "> 9950"}, {"binder": "B5", "cAMP EC50 (1.0% HSA)": "> 9950"}, {"binder": "B6", "cAMP EC50 (1.0% HSA)": "> 9950"}, {"binder": "Y[Aib]EGT[αMePhe(2-F)]TSD[Nle]SI[αMeL]LD[Orn]QAQ[Aib][Orn]FIK([AEEA-AEEA-γGlu-C14 diacid])[αMeY]LIK([AEEA-AEEA-γGlu-C14 diacid])GGPSSGAPPPS-NH2", "note": "[Example 490]", "cAMP EC50 (1.0% HSA)": "> 9950"}, {"binder": "B7", "cAMP EC50 (1.0% HSA)": "> 9950"}, {"binder": "B8", "cAMP EC50 (1.0% HSA)": "> 9950"}, {"binder": "B9", "cAMP EC50 (1.0% HSA)": "> 9950"}, {"binder": "B10", "cAMP EC50 (1.0% HSA)": "> 9950"}, {"binder": "B11", "cAMP EC50 (1.0% HSA)": "> 9950"}, {"binder": "B12", "cAMP EC50 (1.0% HSA)": "> 9950"}]}, {"target": "T1, human GIP receptor (human, UniProt P48546 22-466)", "T1 sequence (looked up)": "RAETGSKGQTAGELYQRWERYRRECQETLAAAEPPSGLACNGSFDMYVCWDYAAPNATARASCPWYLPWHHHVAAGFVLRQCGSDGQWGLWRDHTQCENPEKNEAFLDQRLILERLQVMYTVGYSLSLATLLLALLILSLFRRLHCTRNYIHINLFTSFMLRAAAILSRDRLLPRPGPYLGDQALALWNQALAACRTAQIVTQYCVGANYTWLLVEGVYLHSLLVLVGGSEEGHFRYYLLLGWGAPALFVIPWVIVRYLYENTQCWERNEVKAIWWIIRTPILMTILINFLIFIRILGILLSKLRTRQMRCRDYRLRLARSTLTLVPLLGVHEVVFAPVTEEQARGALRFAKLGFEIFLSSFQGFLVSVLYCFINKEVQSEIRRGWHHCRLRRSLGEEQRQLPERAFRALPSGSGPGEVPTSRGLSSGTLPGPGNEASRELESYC", "assay": "cell-based or functional assay", "units": {"cAMP EC50 (1.0% HSA)": "nM", "cAMP Emax (1.0% HSA)": "%"}, "values": [{"binder": "B1", "cAMP EC50 (1.0% HSA)": 0.154}, {"binder": "B2", "cAMP EC50 (1.0% HSA)": 0.211}, {"binder": "B3", "cAMP EC50 (1.0% HSA)": 0.568}, {"binder": "B4", "cAMP EC50 (1.0% HSA)": 0.979}, {"binder": "B5", "cAMP EC50 (1.0% HSA)": 0.591}, {"binder": "B6", "cAMP EC50 (1.0% HSA)": 0.453}, {"binder": "Y[Aib]EGT[αMePhe(2-F)]TSD[Nle]SI[αMeL]LD[Orn]QAQ[Aib][Orn]FIK([AEEA-AEEA-γGlu-C14 diacid])[αMeY]LIK([AEEA-AEEA-γGlu-C14 diacid])GGPSSGAPPPS-NH2", "note": "[Example 490]", "cAMP EC50 (1.0% HSA)": 0.976, "cAMP Emax (1.0% HSA)": 97.1}, {"binder": "B7", "cAMP EC50 (1.0% HSA)": 0.517}, {"binder": "B8", "cAMP EC50 (1.0% HSA)": 0.29}, {"binder": "B9", "cAMP EC50 (1.0% HSA)": 1.08, "cAMP Emax (1.0% HSA)": 87.5}, {"binder": "B10", "cAMP EC50 (1.0% HSA)": 0.371, "cAMP Emax (1.0% HSA)": 88.7}, {"binder": "B11", "cAMP EC50 (1.0% HSA)": 0.196, "cAMP Emax (1.0% HSA)": 89.5}, {"binder": "B12", "cAMP EC50 (1.0% HSA)": 0.467}]}, {"target": "human GLP-1 receptor (human, UniProt P43220 24-463)", "assay": "cell-based or functional assay", "units": {"cAMP EC50 (1.0% HSA)": "nM", "cAMP Emax (1.0% HSA)": "%"}, "values": [{"binder": "B1", "cAMP EC50 (1.0% HSA)": 1.5}, {"binder": "B2", "cAMP EC50 (1.0% HSA)": 1.44}, {"binder": "B3", "cAMP EC50 (1.0% HSA)": 4.36}, {"binder": "B4", "cAMP EC50 (1.0% HSA)": 7.07}, {"binder": "B5", "cAMP EC50 (1.0% HSA)": 7.24}, {"binder": "B6", "cAMP EC50 (1.0% HSA)": 3.66}, {"binder": "Y[Aib]EGT[αMePhe(2-F)]TSD[Nle]SI[αMeL]LD[Orn]QAQ[Aib][Orn]FIK([AEEA-AEEA-γGlu-C14 diacid])[αMeY]LIK([AEEA-AEEA-γGlu-C14 diacid])GGPSSGAPPPS-NH2", "note": "[Example 490]", "cAMP EC50 (1.0% HSA)": 7.68}, {"binder": "B7", "cAMP EC50 (1.0% HSA)": 6.16, "cAMP Emax (1.0% HSA)": 108}, {"binder": "B8", "cAMP EC50 (1.0% HSA)": 2.65, "cAMP Emax (1.0% HSA)": 104}, {"binder": "B9", "cAMP EC50 (1.0% HSA)": 5.51}, {"binder": "B10", "cAMP EC50 (1.0% HSA)": 4.31, "cAMP Emax (1.0% HSA)": 104}, {"binder": "B11", "cAMP EC50 (1.0% HSA)": 2.55}, {"binder": "B12", "cAMP EC50 (1.0% HSA)": 6.16, "cAMP Emax (1.0% HSA)": 112}]}]}
